Read-outs that look alike come from different tables or passages of the source. Square brackets hold non-standard residues; d marks the D form. Ends that are not written are not given here. Nle = CCCC[C@H](N)C(=O)O
Columns and labels:
[1] = biological target: T1, human melanocortin-4 receptor (hMC4-R) (human, UniProt P32245 1-332); assay: 125I-NDP-α-MSH competition, hMC4-R membranes
T1 construct: whole, on cells; membranes prepared from hMC4-R cells were used; also called Melanocortin Receptor 4
T1 sequence (P32245 whole entry): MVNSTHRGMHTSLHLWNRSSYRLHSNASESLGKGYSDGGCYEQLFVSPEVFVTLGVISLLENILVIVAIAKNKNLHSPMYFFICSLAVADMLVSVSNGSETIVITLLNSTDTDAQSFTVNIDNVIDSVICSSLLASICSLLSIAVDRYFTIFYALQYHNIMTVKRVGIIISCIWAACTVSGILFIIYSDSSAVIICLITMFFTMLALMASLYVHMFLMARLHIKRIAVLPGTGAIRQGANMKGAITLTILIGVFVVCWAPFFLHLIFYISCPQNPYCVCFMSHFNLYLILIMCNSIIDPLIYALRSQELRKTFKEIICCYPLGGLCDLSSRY
Description: (§1) The competitive inhibition binding assay was conducted using membranes prepared from hMC3-R, hMC4-R, hMC5-R, and B-16 mouse melanoma cells (containing MC1-R) using 0.4 nM ¹²⁵I-NDP-alpha-MSH (New England Nuclear, Boston, Mass., USA) in 50 mM HEPES buffer containing 1 mM MgCl₂, 2 mM CaCl₂, and 5 mM KCl, at pH 7.2. […] Incubation was for 90 minutes at room temperature, after which the assay mixture was filtered and the membranes washed three times with ice cold buffer. The filter was dried and counted in a gamma counter for remaining radioactivity bound to the membranes. 100% specific binding was defined as the difference in radioactivity (cpm) bound to cell membranes in the absence and presence of 1 μM α-MSH. […] Each assay was conducted in triplicate and the actual mean valves are described.
(§2) The first unnumbered peptide in Table 5 is the parent polypeptide, which is a γ-MSH analog specific for melanocortin receptors. The methods and assays set forth in Example 1 were followed.

[2] = biological target: T2, human melanocortin-3 receptor (hMC3-R) (human, UniProt P41968 1-323); assay: 125I-NDP-α-MSH competition, hMC3-R membranes
T2 construct: whole, on cells; membranes prepared from hMC3-R cells were used; also called Melanocortin Receptor 3
T2 sequence (P41968 whole entry): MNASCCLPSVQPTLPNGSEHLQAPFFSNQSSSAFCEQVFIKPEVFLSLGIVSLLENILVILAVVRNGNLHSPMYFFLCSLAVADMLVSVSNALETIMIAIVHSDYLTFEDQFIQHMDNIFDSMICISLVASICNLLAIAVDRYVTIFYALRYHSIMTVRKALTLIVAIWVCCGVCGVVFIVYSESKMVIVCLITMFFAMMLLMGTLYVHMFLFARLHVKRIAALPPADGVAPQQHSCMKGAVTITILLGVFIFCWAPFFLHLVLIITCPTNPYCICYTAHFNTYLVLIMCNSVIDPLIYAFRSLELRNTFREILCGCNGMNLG
Description: as §1
(§3) The first unnumbered peptide in Table 3 is the parent polypeptide, which is a Nle³, D-Phe⁶ substituted γ-MSH analog specific for melanocortin receptors. The methods and assays set forth in Example 1 were followed.

[3] = biological target: T2, human melanocortin-3 receptor (hMC3-R); assay: 125I-NDP-α-MSH competition, hMC3-R membranes; remark: listed apart in the source
Description: as §1, §2

[4] = biological target: T3, melanocortin-1 receptor (MC1-R) of B-16 mouse melanoma cells (mouse, UniProt Q01727 1-315); assay: 125I-NDP-α-MSH competition, B-16 membranes
T3 construct: whole, on cells; membranes prepared from the cells were used; also called Melanocortin Receptor 1
T3 sequence (Q01727 whole entry): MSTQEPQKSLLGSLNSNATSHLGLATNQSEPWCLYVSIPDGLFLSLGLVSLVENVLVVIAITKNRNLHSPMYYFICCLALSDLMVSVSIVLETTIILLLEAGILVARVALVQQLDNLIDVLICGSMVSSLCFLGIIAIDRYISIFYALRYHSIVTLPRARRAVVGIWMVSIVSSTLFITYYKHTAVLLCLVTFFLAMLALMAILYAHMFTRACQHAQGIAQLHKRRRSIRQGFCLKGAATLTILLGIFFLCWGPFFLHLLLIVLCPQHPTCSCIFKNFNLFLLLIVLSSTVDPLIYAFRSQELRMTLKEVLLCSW
Description: as §1, §3

[5] = biological target: T1, human melanocortin-4 receptor (hMC4-R); assay: 125I-NDP-α-MSH competition, hMC4-R membranes; remark: listed apart in the source
Description: as §1, §3

[6] = biological target: T4, human melanocortin-5 receptor (hMC5-R) (human, UniProt P33032 1-325); assay: 125I-NDP-α-MSH competition, hMC5-R membranes
T4 construct: whole, on cells; membranes prepared from hMC5-R cells were used; also called Melanocortin Receptor 5
T4 sequence (P33032 whole entry): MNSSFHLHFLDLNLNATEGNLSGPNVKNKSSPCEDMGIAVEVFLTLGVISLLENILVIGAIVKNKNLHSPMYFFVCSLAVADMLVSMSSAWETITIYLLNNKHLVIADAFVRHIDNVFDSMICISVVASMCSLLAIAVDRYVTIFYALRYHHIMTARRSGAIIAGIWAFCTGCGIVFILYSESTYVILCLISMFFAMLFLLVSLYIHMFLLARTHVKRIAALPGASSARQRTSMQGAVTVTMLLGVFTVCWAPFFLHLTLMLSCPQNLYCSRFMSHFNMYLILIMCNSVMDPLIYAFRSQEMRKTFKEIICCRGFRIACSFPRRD
Description: as §1, §2

[7] = biological target: T3, melanocortin-1 receptor (MC1-R) of B-16 …; assay: 125I-NDP-α-MSH competition, B-16 membranes; remark: listed apart in the source
Description: as §1, §2

[8] = biological target: T4, human melanocortin-5 receptor (hMC5-R); assay: 125I-NDP-α-MSH competition, hMC5-R membranes; remark: listed apart in the source
Description: as §1, §3

Binder	% Inhibition at 1 µM [1] [%]	% Inhibition at 1 µM [2] [%]	% Inhibition at 1 µM [3] [%]	% Inhibition at 1 µM [4] [%]	% Inhibition at 1 µM [5] [%]	% Inhibition at 1 µM [6] [%]	% Inhibition at 1 µM [7] [%]	% Inhibition at 1 µM [8] [%]
YVXGHFRWDRF (Nle 3 (X in letters); D-Phe 6; C-terminal amide, not complexed to Re) [[Nle3, D-Phe6]-γ-MSH parent polypeptide Tyr-Val-Nle-Gly-His-D-Phe-Arg-Trp-Asp-Arg-Phe-NH2]	99	100	100	99	99	100	99	100
YV[Nle]GC[dF]RWDRF-NH2 (also: oxorhenium(V) N3S1 chelate: C5 SG + backbone N of X3, G4, C5, bridge at 5 via Re(V)=O, other end not in the chain) [metallopeptide 5-7]	69		70			88	89	
YV[Nle]CH[dF]RWDRF-NH2 (also: oxorhenium(V) N3S1 chelate: C4 SG + backbone N of V2, X3, C4, bridge at 4 via Re(V)=O, other end not in the chain) [metallopeptide 5-8]	86		89			98	95	
YVCGH[dF]RWDRF-NH2 (also: oxorhenium(V) N3S1 chelate complex at Cys3) [metallopeptide 5-9]	66		53			53	89	
